From the DeepSol protein solubility set

Assay: soluble on expression in E. coli; label from the status in PepcDB or PDB records

Sequence | soluble on expression in E. coli
MGSDKIHHHHHHMNETPLRLLEMLTQTREDLWRAAQALTERGVTRIILTGSGTSYHGALTARTFMQRWCALPVDVCWPFMLDDETLARSGKALVVGISQGGGSLSTLAAMERARNVGHITASMAGVAPATIDRAADYILTVPCGEETAGAKTKGYHCTVLNLMLLALAVAGQQQRLDGEQRRSLLLRMEKTFNHLPALVTASQAWAQTNALALRDSADIRLTGPATLFGTVQEGALKMLETLRCPVSGYEFEEFIHGIYNAFNAQSALIMLDPQPDARQDRLAQILGEWTPSIYRIGPQVENNGLNLNFPFVNDEDFAVFEYIIPLQMLCAILPPQKGINPAIPKDPQFHQKMKSKQEI | not soluble
MSNLPFHQFCGTEGYVASRALQDVVNVAIALERPLLLKGEPGTGKTLLAYHIAKALGMEIILWNVKSTTKARDGLYTYDTVQRLNDARFGDGDVRDIRHYIKLGPLGRAFGSAERVVLLIDEVDKADIEFPNDLLFELDEMRFHVLETDEWVSAAHRPVVIVTSNSEKELPDAFLRRCVFHYIDFPDETQMRAIIDVHFPDLPAELMRSACKVFYGLREVPGLRKRPSTSELLDWIRVLLASGARLPEEETPALQSVPFLGALVKIQEDADILAHHASRSADVRTAGRRFFRLEHHHHHH | not soluble
MKKTDTLPATLSALIQEYSIAEGIQMAEQQVRENPAKALCRHSLFQLLCVAGDWSRALHQLQLCARMEANYTQEARLYRELVRCEMFRHTVFQGEQRPGFLLPQPVWVESLLAALACHDDTGEVDKHRNTALEAITDTGGQWNGGAFDWASDSDSRLGPVLELVTGGVYIWLPFSQIRSLESPQPTRLTDLLWKPVNITLVNGDTHGAWLFTRYSGSESASDALRLCRETAWQDGPGETTVRALGQKVWLTSHGDISLLDMAHCTFHAQENDGA | not soluble
MGSTRWDAVNKFSVENWYPHLRKHTFKSHFITLNYNDIHYLMGNIPPDYDSSKLESIFNKILSEFNNKEVFMRLSTRSPKDSKFLFEEASTIMSKDFVYWNENDNKHQQLVSFVASMLKAMKIKSGRKIIETIAQSPRVYNDLLALVSSSNQSDCTTNVILREWHDIRPDHEFRVFVSRRHRKESIVTAISQYFHFLYFDKSPADCFNFLDEEDKKAVIKKFENYVLKSVDPDVAKFLNFSSEQDDDESSDCIREYIVDLALIPVSQYHGEITDENIIEIGANTYVMVVIELNPFAPAATGSGLFNWKNDLMMLWGKASCDYPVFKYRTTPREDLQSVSLLPSNYESVIKSALIKRLETSYSNSASQKERFFSSTKPVTESSGSALLDMVTKPLEHHHHHH | soluble
MGSDKIHHHHHHMKMKGIESLKEIFKYGAFSLPVANYLLCEGNIPGDCKRILDVLKLAWKGNFKEAIRRADKAVENSRSETAKYFLLANKLAFLKYTGKTDVNLYRYLKRNLPKMSKSIRDTVIVTLINFEASGIKPLRKVRVWKNDYRKSTLSFLYLSLARREADSGRLSEAVHDYIQAYRLSREVPHPTCIVSSLNDLAWDIREKHPKLAHALSQGAVFWLGYYREEPGNLFGALDTLFVVEKDMDSPSIHSTAHIIVSLPVPEDYLSLLKKAKKFVLDYTGSTYPNTSQLRRYVEKVAWKGKTLSSKGISDILKGKTKMIRADTIRKLLTSGVDTGAPFPVWNEWIKMEIERKYRESSEKLKELPFHQRQILFLTTYMALLDREFLSRKEKLKKAYTLLEDIESFADFMAKDHRTMEFVVSMVKAHPFVEGRKEAVKRALARMKRKRLERFVLRYIEMKESDRKLLDRFLRNYGRYDGVRFGIRLKGPEVVREFAKKYSLKVQPLFAAFWCEEDGRVRRRLERVLKHMVLYNLIEIAILFVMVEK | not soluble
MEVLGITEKALNYYRENVKDNKTITPDQALLKMIRNVLLVKETHPERVKKRLFCTEYAYGNMIIKVNRKKQVFEIVNKSGCFSDQNDWKFPKRRYIELSKELGIKDCKFRKITYSKKNHNKQKLEHHHHHH | soluble
MSLAPANGLRIYALGGISEIGRNMTVFEYNNRLLIVDCGVLFPSSGEPGVDLILPDFGPIEDHLHRVDALVVTHGHEDHIGAIPWLLKLRNDIPILASRFTLALIAAKCKEHRQRPKLIEVNEQSNEDRGPFNIRFWAVNHSIPDCLGLAIKTPAGLVIHTGDIKLDQTPPDGRPTDLPALSRFGDEGVDLMLCDSTNATTPGVSGSEADVAPTLKRLVGDAKQRVILASFASNVYRVQAAVDAAVASNRKVAFNGRSMIRNMEIAEKLGYLKAPRGTIISMDDASRMAPHKVMLITTGTQGEPMAALSRMARREHRQITVRDGDLIILSSSLVPGNEEAVFGVINMLAQIGATVVTGRDAKVHTSGHGYSGELLFLYNAARPKNAMPVHGEWRHLRANKELAISTGVNRDNVVLAQNGVVVDMVNEGHHHHHH | soluble
METFGVFHKEDDEQMDLPPGFRFHPTDEELITHYLHKKVLDLGFSAKAIGEVDLNKAEPWELPYKAKIGEKEWYFFCVRDRKYPTGLRTNRATQAGYWKATGKDKEIFRGKSLVGMKKTLVFYRGRAPKGQKTNWVMHEYRLDGKLSAHNLPKTAKNEWVICRVFHKTAGGKKIPISTLIRIGSYGTGSSLPPLTDSSPYNDKTKTEPVYVPCFSNQAETRGTILNCFSNPSLSSIQPDFLQMIPLYQPQSLNISESSNPVLTQEQSVLQAMMENNRRQNFKTLSISQETGVSNTDNSSVFEFGRKRFDHQEVPSPSSGPVDLEPFWNY | soluble
MLYSSNAILLTVICYELPLSERIRMLLRLEDLFDKIDFFSARDTSFEHHAVLVALFEILDVTSRSDLKSDLLQELDKQRTMLEGLRSNPEVSEKALDHILQDIRAAFRGLLDIPGRIGGHLRDDEWLMSVKQRMSIPGAACEFDLPAYHYWLNLAPEIRREDLKDWITPFTPIRSGINIVLNMLRNSGKNCCYTAVQGLFQQAGSEHQAHLLRLHISSEFPCVPEISANKYALNIRFVPWRSDHKTEVYEEDIPFELTFCSL | not soluble
NFNSQNGVNKDEKDHLIERLYREISGLKAQLENMKTESQRVVLQLKGHVSELEADLAEQQHLRQQAADDCEFLRAELDELRRQREDTEKAQRSLSEIERKAQANEQRYSKLKEKYSELVQ | soluble
MMLAISEIRKHPDGLSFDRLCDVKSMLLERDQQIIDIKAVKAVGNVRYDKGLYLLDYQLSYEVILPSSRSMVPVCLSEVQHIQELFIEATDLADKKELVEDNLVLVLDKDAINLEESIVDNILLAIPVQVLTEEEKKSKELPAGQNWAVLTEEDYQCLKEEKQKENNPFASLQGLFDE | not soluble
AHHHHHHGSPRWGRGRRRKMRMIEFIPYARHFYPALPRFGPPKPPIIMTYEEFEALRLVDYEGLTQEEAGKRMGVSRGTIWRALTSARKKVAQMLVEGRELIILPQGNEVIKSDEE | not soluble
MAHHHHHHMFSRTGFRCAPVVEDVVAAFKVLGLAYNPRAPASSRPGVDDVRRQYLEMARLHHPDLSSGDDNRMKVINTAYELIQSSGILHGAYDAPAGAREGVAGQQGGEAGTATRFARKAGARRRRMPDDFASGDDSSWSMKTSLDWQAIMNSTETLSDEEMKNPANHPFSHSKFFTFEDDLTIYRMICGGATVRQVARSLGKPATFIERRLQNAQFKLRVQYVLRQDKRKSTAASSNGAASSGSMQQTTSTTITEPATRRALRRSPYEDAHVSSTVRKREWEPSYPEWRAPRYRDQMTLEEQGRLDGLLRETPRAAHAAGKSVSSLHSARRSAASKMGRSYENYKRLRPSF | not soluble
MNVLKEVYATIEKRIEEKPEGSYVAKLTTDDKKTAVNKICEKVGEEAAEVIIAAKDNDKAEIIYESADLIFHTMVLLAKSGITYEELSEEFKKRMKLEHHHHHH | not soluble
MTTQTIKFHMKPETFKQNAAISLQDKPLRKSLRTAMDMLMTKRKAVLTDEEELQSLRDLCEHVRQRSLSKLPALLEQLEENLTKLGVKVHWAETPTEACQIIHDIITAKNGKLMVKGKSMVSEEIELNHYLEAKGIKAVESDLGEFIVQMAGEKPTHIVMPAIHKTKEQVSELFHQNLGTPLTDDVDQLTGFARKALRDIYSTADVGLSGVNFAVAETGTLCLVENEGNGRLSTTVPPVHIAITGIEKVVAKLSDIPPLYSLLPRSAIGQNITTYFNMITGPRRSEELDGPQEMHLVLLDNGRSQAYAEDQMRRTLQCIRCGACMNHCPVYTRIGGAAYGTTYPGPIGEIISPHLLGLDATRDLPTACTMCGACVEVCPVRIPITEQMQRLRVEAQRSPTETVPHPIRGQGASHTFGEQMAWRTFNGIFSGSKTYRAFGWAATKFRNLTPRKQLGWTQNRVPMKPAKKTLHELMAEKMRQKEQA | not soluble
ANIIANTSLTIGPSKLDVAKITPELLASLNEVGGSEANVATGYHAIEFLLWGQDLNGTNAGAGKRAYTDFVVGSGCTNGHCDRRGEYLKAAADLLVQDLEWMEKQWSADEKGNYRQELLTGSAENGLRKMLFGMGSLSLGELAGERMKVALEANSTEDEHDCFSDNTHNSHYYNEQGIYNVYTGTYSRQDGTVLTGPSIANLVAQEDKKAAEEIQKQFDATRSQVGELVTSAEKHNQHFDQLIAAGNAQGNALVNDTIMALVAQTGAIERAAGIVGIDSLSPDTADHEF | not soluble
MGSDKIHHHHHHMTGLSQSQASPMQIQPGNAAFNPWTDAALDTIRDVNQALTLYAEMRVVPAHHDAFLAAIDTVSAKLRVLPGFLSLALKQMSGDSTMVKNYPETYKGVLATAYLDGVAAGTQPYFYNLFVRFADGRAARAAGFEALFETHIHPLLHAMAPRGGDGPELLAYRAVLQSVVAGDRHAIYRGAEEIRSFLRRPVELPERETVTVENHVMVPEDKHAAWEPQVAILLQVAQDTFEPQDEPSGVGLPGARDNRYYRKALSTEILRNAHADGGLRAYIMHGVWESVWDHENSHLDPRFLAAAGPVGAAAVVGPVEPFYLTRRLVVAD | not soluble
MCSALVVAAPHSGSGKTTVTAAIARYHRVQGRKVTVFKVGPDFIDPMILRQASGELVYQLDLWLVGEQGCRALLHRAAMDSDLILIEGVMGLFDGTPSSADLAKYFNIPVLGVIDAKAMAQTFAAVTFGLAKFCEDLPFSGVIANRVNTERHAELLSVSLPKAFRFYGRIPKDDTITLPERHLGLVQAQELSDIDVQLDKAASHIANTGLTELPSQVEFFAQEDDNQENIIEGALAGTRIIIIRDSAFSFIYAANIAFLTQTGAELIYCSAMADVHLPDGDILYIPGGYPELYAEQLMNNVTFLSDIRAFSASNKPIVAECGGMLYLLEQLTDMEGQQFSMLGLMPGKATMQKKLAAIGSQWVPLPSFADAAEDSADNIMRGHSFHYSCAEIELEPSSQTTHHPSERAGEYVYQHNNILASYMHWYFPSNPSLTLRIFDKARYLLEHHHHHH | soluble
MEIEKENGSKRLAVLIDADNAQASVLGELLAEISKYGTLNIKRAYGDWTSSNLKSWKEHLHKYAIAPIQQFNYTSGKNATDSALIIDAMDLLHDAPLEGFCLVSSDSDFTRLATRIRESGLVVYGFGEKKTPEAFVAACDKFIYTEILRQEEQRRPESSWNDSWSKSESKALKSIIQPAIKATMKEDDWVPLASIGLYISKNHPAFDPRNYGYDKLGRLIETLDFVELKKIPFKDGSSNTHVMVRLRSLEHHHHHH | not soluble
MSSLTLTDKVSKMIHQDILSGKLKPGQKLVVAELKERYNVGASPIREALVQLSWNKYVKLEPQKGCWVASISLSELKELFESLRTIGQVLLAKAITNGNENWELNVLTSFHKLNKINLQDAKIEELREWENRYTDFHNSLLEGAQSPIMYQFYQDISHQITRYRHLNNNPQVISETYAQYLEEHEIMMKLTLSRDSEQAIKYLNNHYSKASDLISTYFSA | not soluble
MQPWQTDPTRAPVATKIVVAGGFGVGKTTLVTAVSEITPLQTEALMTEASEETDDLTATPGKLTTTVAMDFGRITLDDDLVLYLFGTPGQQRFWFMWDDLVRGAIGAVVLADTRRLKDCWPALDYFESCGLPYVVAVNHFDGSELFEAEDVREALTIPAHIPVMIMDARRRISAIETLLSLVGHALDETPELEHHHHHH | not soluble
